From patent US20210332120A1 (JOINT STOCK COMPANY BIOCAD, published 2021)

Legend:
human IL-17F = biological target: T1, human IL-17F (human, UniProt Q96PD4 31-163); test: BLI OctetRED96
T1 construct: also called IL-17F human
T1 sequence (looked up): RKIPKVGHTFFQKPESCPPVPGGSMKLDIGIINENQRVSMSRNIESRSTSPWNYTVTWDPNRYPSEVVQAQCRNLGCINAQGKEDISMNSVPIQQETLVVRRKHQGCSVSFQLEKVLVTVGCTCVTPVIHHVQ

human IL-17A [1] = biological target: T2, human IL-17A (human, UniProt Q16552 20-155, limits assumed); test: cell-based or functional assay
mouse TNFα = biological target: T3, mouse TNFα (mouse, UniProt P06804 80-235); test: ELISA, plate coated with mouse TNFα, anti-Fab HRP detection
T3 sequence (looked up): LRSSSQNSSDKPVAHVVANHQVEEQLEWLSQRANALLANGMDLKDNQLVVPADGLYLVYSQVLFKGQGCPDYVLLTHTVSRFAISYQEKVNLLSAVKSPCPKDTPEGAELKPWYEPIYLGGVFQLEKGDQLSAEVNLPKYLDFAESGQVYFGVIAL

rabbit TNFα = biological target: T4, rabbit TNFα (rabbit, UniProt P04924 80-235, limits assumed); test: ELISA, plate coated with rabbit TNFα, anti-Fab HRP detection
T4 sequence (looked up): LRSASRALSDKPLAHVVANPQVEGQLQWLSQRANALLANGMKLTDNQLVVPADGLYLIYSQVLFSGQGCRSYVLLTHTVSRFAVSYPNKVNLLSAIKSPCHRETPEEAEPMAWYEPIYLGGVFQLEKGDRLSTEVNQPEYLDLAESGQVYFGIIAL

human IL-17B = biological target: T5, human IL-17B (human, UniProt Q9UHF5 21-180); test: ELISA, plate coated with human IL-17B, anti-Fab HRP detection
T5 sequence (looked up): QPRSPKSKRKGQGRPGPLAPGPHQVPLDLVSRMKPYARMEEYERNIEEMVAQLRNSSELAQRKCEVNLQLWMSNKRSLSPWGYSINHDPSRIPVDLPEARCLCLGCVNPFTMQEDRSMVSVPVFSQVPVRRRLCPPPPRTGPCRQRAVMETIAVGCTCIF
Description: (§1) For the binding analysis, the wells of ELISA plates (medium binding from Greiner bio one) were individually coated with 50 μl of human IL-17A, IL-17B, IL-17C, IL-17D, IL-17E, IL-17F, or IL-17A/F (R&D Systems) at a concentration of 1 μg/ml (in 1× coating carbonate buffer), hermetically sealed, and incubated overnight at 4 C. All subsequent steps were performed by standard EIA protocol. To block non-specific binding blocking, buffer BB was added (200 μl of 0.5% skim milk in PBS). Plates were incubated on a shaker for one hour at room temperature. After washes with PBS-Tween, 50 μl of the test antibodies were added to each well at a concentration of 5 μg/ml in PBS-Tween. Plates were again incubated with shaking for one hour at room temperature, then each well of the plates was washed three times with PBS-Tween buffer. After washing, human anti-Fab HRP-conjugated secondary antibody (from Pierce-ThermoScientific) was added (50 μl/well) at a ratio of 1:5000 in PBS-Tween. Plates were shaken on a rotary shaker (50 min, room temperature) and washed three times with PBS-Tween buffer, as described above. […] The color signal was measured at 450 nm using a suitable plate-reader (Tecan-Sunrise; Tecan).

human IL-17C = biological target: T6, human IL-17C (human, UniProt Q9P0M4 19-197); test: ELISA, plate coated with human IL-17C, anti-Fab HRP detection
T6 sequence (looked up): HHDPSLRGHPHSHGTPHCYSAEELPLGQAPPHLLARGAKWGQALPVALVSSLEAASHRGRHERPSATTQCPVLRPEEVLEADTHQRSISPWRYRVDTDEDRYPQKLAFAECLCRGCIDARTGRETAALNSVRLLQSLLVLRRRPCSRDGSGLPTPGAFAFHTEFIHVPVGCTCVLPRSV
Description: as §1

human IL-17D = biological target: T7, human IL-17D (human, UniProt Q8TAD2 18-202, limits assumed); test: ELISA, plate coated with human IL-17D, anti-Fab HRP detection
T7 sequence (looked up): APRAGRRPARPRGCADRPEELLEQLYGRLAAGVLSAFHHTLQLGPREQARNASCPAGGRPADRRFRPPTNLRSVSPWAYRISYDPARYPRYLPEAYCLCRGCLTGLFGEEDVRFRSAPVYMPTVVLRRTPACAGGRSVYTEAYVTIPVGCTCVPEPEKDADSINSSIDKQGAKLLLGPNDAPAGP
Description: as §1

human IL-17E = biological target: T8, human IL-17E (human, UniProt Q9H293 33-177); test: ELISA, plate coated with human IL-17E, anti-Fab HRP detection
T8 sequence (looked up): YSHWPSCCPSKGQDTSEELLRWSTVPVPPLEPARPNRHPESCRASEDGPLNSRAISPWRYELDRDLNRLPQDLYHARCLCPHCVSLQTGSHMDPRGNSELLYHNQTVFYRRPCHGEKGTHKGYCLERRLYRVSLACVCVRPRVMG
Description: as §1

guinea pig TNFα = biological target: T9, guinea pig TNFα (guinea pig, UniProt P51435 80-234, limits assumed); test: ELISA, plate coated with guinea pig TNFα, anti-Fab HRP detection
T9 sequence (looked up): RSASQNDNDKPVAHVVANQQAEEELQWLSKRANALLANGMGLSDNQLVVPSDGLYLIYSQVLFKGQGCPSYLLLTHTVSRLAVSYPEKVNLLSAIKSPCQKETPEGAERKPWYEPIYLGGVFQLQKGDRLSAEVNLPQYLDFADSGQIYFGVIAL

TNFα multta = biological target: T10, TNFα multta (multta (so in the source); primate), UniProt P48094 77-233); test: SPR Biacore T200; ligand amine-coupled, antibody 1 to 25 µg/ml, Heterogeneous Ligand model
T10 construct: The species is printed only as 'multta'; read as Macaca mulatta
Description: (§2) The analysis was conducted using the Sandwich approach using IL-17A and TNFα preparations produced by Sino Biologics. After activation of the chips, individual ligand was nonspecifically (by NH2 groups) immobilized on the biosensor surface at a concentration of 20 μg/ml. Loading of the antibody was then performed at a concentration from 1 to 25 μg/ml. Thereafter, the sensors were immersed in the running buffer for the complex dissociation step. The flow rate was 10 μl/min.
(§3) Analysis of the obtained data was performed using BIA Evolution 3.1 software and the Heterogeneous Ligand model.

cynomolgus IL-17A = biological target: T11, cynomolgus IL-17A (cyno, UniProt A0A2K5TTB0 24-155); test: as above
T11 construct: also called IL-17A cyno
Description: as §2, §3

human IL-17A [2] = biological target: T2, human IL-17A; test: SPR Biacore T200; ligand amine-coupled, antibody 1 to 25 µg/ml, Heterogeneous Ligand model; * below the threshold sensitivity of the device
Description: as §2, §3

T2 sequence (Q16552 20-155 limits assumed): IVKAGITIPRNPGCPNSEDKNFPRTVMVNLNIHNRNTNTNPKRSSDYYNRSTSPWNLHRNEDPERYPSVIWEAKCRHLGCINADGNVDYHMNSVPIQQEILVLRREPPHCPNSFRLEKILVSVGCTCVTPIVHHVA
T11 sequence (A0A2K5TTB0 entry or part of it): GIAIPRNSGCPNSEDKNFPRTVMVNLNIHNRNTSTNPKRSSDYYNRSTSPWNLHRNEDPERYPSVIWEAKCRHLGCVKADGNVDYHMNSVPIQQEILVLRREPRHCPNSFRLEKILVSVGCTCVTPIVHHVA
T10 sequence (P48094 77-233 limits assumed): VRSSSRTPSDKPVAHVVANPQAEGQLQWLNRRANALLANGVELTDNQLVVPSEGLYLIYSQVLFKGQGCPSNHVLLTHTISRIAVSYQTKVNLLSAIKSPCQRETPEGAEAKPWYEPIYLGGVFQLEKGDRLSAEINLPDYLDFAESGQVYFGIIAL

Kd (human IL-17F): ~4000 pM
IC50, IL-17A and TNFα induced IL-6 production, HT1080 cells (human IL-17A [1]): 0.02 µg/mL
IC50, IL-17A-dependent IL-6 production, HT1080 cells (human IL-17A [1]): 0.0035 µg/mL
binding result (mouse TNFα): no binding (tested: 2 ng/ml)
binding result (rabbit TNFα): no binding (tested: 2 ng/ml)
binding result (human IL-17B): no binding (tested: 0,5 ng/ml)
binding result (human IL-17C): no binding (tested: 0,5 ng/ml)
binding result (human IL-17D): no binding (tested: 0,5 ng/ml)
binding result (human IL-17E): no binding (tested: 0,5 ng/ml)
binding result (guinea pig TNFα): no binding (tested: 2 ng/ml)
Kd (TNFα multta): ~1 pM
Kd (cynomolgus IL-17A): ~1 pM
Kd (human IL-17A [2]): < 1 pM
B1: BCD-121 tri-specific anti-IL-17A/anti-IL-17F/anti-TNFα antibody (bispecific antibody, human IgG1, kappa, L234A L235A)
heavy: not shown
light: EVQLVQSGGGLVQAGGSLRLSCAASGGTFATSPMGWLRQAPGKGTEFVAAISPSGGDRIYADSVKGRFTISRDNAGNFIYLQMNSLKPEDTAVYYCAVRRRFDGTSYYTGDYDSWGQGTLVTVSSGGGSGGGSEGAGSDIQMTQSPSSLSASVGDRVTITCKASQNVGTNVAWYQQKPGKAPKALIYSASFLYSGVPYRFSGSGSGTDFTLTISSLQPEDFATYYCQQYNIFPLTFGQGTKVEIKRTVAAPSVFIFPPSDEQLKSGTASVVCLLNNFYPREAKVQWKVDNALQSGNSQESVTEQDSKDSTYSLSSTLTLSKADYEKHKVYACEVTHQGLSSPVTKSFNRGEC
notes: also called Mab12; VHH-IgG1 (LALA)
